A word on the EC50 (read off the curve): it is the concentration that produces a half-maximal response. As usually defined, the EC50 is the midpoint of the concentration-response curve. High values mean a less potent agent, low ones a more potent agent.

Where two headings read alike, the source gives them in different places.

Results on six molecules are retold here after patent publication US20180208675A1.

Experiment [1] concerns the target EA.hy926 cell surface associated TFPI (human) (UniProt P10646).
Experiment [2] has the same target. In words: flow cytometry on EA.hy926 cells, APC anti-human IgG secondary, median fluorescence intensity.
The target is the same in experiment [3]. The source holds these as a separate data set.

B1: Fab 0088-Fab 0089 conjugate 9002 (bispecific antibody)
heavy 1: EVQLVESGGGLVKPGGSLRLSCAASGFTFSNYAMSWVRQTPEKRLEWVATISRSGSYSYFPDSVQGRFTISRDNAKNSLYLQMNSLRAEDTAVYYCARLGGYDEGDAMDSWGQGTTVTVSSASTKGPSVFPLAPCSRSTSESTAALGCLVKDYFPEPVTVSWNSGALTSGVHTFPAVLQSSGLYSLSSVVTVPSSSLGTKTYTCNVDHKPSNTKVDKRVESKYGPPC
light 1: DIVMTQTPLSLSVTPGQPASISCKSSQSLLESDGKTYLNWYLQKPGQSPQLLIYLVSILDSGVPDRFSGSGSGTDFTLKISRVEAEDVGVYYCLQATHFPQTFGGGTKVEIKRTVAAPSVFIFPPSDEQLKSGTASVVCLLNNFYPREAKVQWKVDNALQSGNSQESVTEQDSKDSTYSLSSTLTLSKADYEKHKVYACEVTHQGLSSPVTKSFNRGEC
heavy 2: QVQLQQSGAELVKPGASVKLSCKASGYTFISYYMYWVKQRPGQGLEWIGEINPSNGDTNLNEKFKSKATLTVDKSSSTVYMQLSSLTSEDSAVYYCTRWDRFDGFVYWGQGTLVTVSAASTKGPSVFPLAPCSRSTSESTAALGCLVKDYFPEPVTVSWNSGALTSGVHTFPAVLQSSGLYSLSSVVTVPSSSLGTKTYTCNVDHKPSNTKVDKRVESKYGPPC
light 2: ETTVTQSPASLSMAIGGKVTIRCIISTNIDDDINWYQQKPGEPPKLLISEGNTLRPGVPSRFSSSGYGTDFVFTIENMLSEDVADYYCLQSDDLPYTFGGGTKLEIKRTVAAPSVFIFPPSDEQLKSGTASVVCLLNNFYPREAKVQWKVDNALQSGNSQESVTEQDSKDSTYSLSSTLTLSKADYEKHKVYACEVTHQGLSSPVTKSFNRGEC
modifications: C-terminal cysteine coupled through the bis-maleimide linker to the Fab 0088 heavy chain; C-terminal cysteine coupled through 1,16-N,N'-bis(maleimido)-4,13-diaza-7,10-dioxa-3,14-dioxohexadecane to the C-terminal cysteine of the Fab 0089 heavy chain
In experiment [1], B1 displayed an EC50 (read off the curve) of 2 nM. Also, the EC50 in experiment [2] turned out to be 0.33 nM.

B2: Fab 0094-Fab 0089 conjugate 9004 (bispecific antibody)
heavy 1: EVQLVESGGGLVKPGGSLRLSCAASGFTFSNYAMSWVRQAPGKGLEWVSTISRSGSYSYYPDSVKGRFTISRDNAKNSLYLQMNSLRAEDTAVYYCARLGGYDEGDAMDSWGQGTTVTVSSASTKGPSVFPLAPCSRSTSESTAALGCLVKDYFPEPVTVSWNSGALTSGVHTFPAVLQSSGLYSLSSVVTVPSSSLGTKTYTCNVDHKPSNTKVDKRVESKYGPPC
light 1: DIVMTQTPLSLSVTPGQPASISCKSSQSLLESDGKTYLNWYLQKPGQSPQLLIYLVSILDSGVPDRFSGSGSGTDFTLKISRVEAEDVGVYYCLQATHFPQTFGGGTKVEIKRTVAAPSVFIFPPSDEQLKSGTASVVCLLNNFYPREAKVQWKVDNALQSGNSQESVTEQDSKDSTYSLSSTLTLSKADYEKHKVYACEVTHQGLSSPVTKSFNRGEC
heavy 2: QVQLQQSGAELVKPGASVKLSCKASGYTFISYYMYWVKQRPGQGLEWIGEINPSNGDTNLNEKFKSKATLTVDKSSSTVYMQLSSLTSEDSAVYYCTRWDRFDGFVYWGQGTLVTVSAASTKGPSVFPLAPCSRSTSESTAALGCLVKDYFPEPVTVSWNSGALTSGVHTFPAVLQSSGLYSLSSVVTVPSSSLGTKTYTCNVDHKPSNTKVDKRVESKYGPPC
light 2: ETTVTQSPASLSMAIGGKVTIRCIISTNIDDDINWYQQKPGEPPKLLISEGNTLRPGVPSRFSSSGYGTDFVFTIENMLSEDVADYYCLQSDDLPYTFGGGTKLEIKRTVAAPSVFIFPPSDEQLKSGTASVVCLLNNFYPREAKVQWKVDNALQSGNSQESVTEQDSKDSTYSLSSTLTLSKADYEKHKVYACEVTHQGLSSPVTKSFNRGEC
modifications: C-terminal cysteine coupled through the bis-maleimide linker to the Fab 0094 heavy chain; C-terminal cysteine coupled through 1,16-N,N'-bis(maleimido)-4,13-diaza-7,10-dioxa-3,14-dioxohexadecane to the C-terminal cysteine of the Fab 0089 heavy chain
In turn, B2 showed an EC50 in experiment [2] of 6.9 nM.

B3: mAb 2021 (antibody, human IgG4 S228P, kappa, V domains shown)
VH: EVQLVESGGGLVKPGGSLRLSCAASGFTFSNYAMSWVRQTPEKRLEWVATISRSGSYSYFPDSVQGRFTISRDNAKNSLYLQMNSLRAEDTAVYYCARLGGYDEGDAMDSWGQGTTVTVSS
VL: DIVMTQTPLSLSVTPGQPASISCKSSQSLLESDGKTYLNWYLQKPGQSPQLLIYLVSILDSGVPDRFSGSGSGTDFTLKISRVEAEDVGVYYCLQATHFPQTFGGGTKVEIKR
B3 came in with an EC50 (read off the curve) in experiment [3] of 1 nM. Moreover, the EC50 in experiment [2] was determined as 0.11 nM.

B4: Fab 0313 (Fab fragment of mAb 2000) (Fab, V domains shown)
VH: EVQLVESGGGLVKPGGSLRLSCAASGFTFSNYAMSWVRQAPGKGLEWVSTISRSGSYSYYADSVKGRFTISRDNAKNSLYLQMNSLRAEDTAVYYCARLGGYDEGDAMDSWGQGTTVTVSS
VL: DIVMTQTPLSLSVTPGQPASISCKSSQSLLESDGKTYLNWYLQKPGQSPQLLIYLVSILDSGVPDRFSGSGSGTDFTLKISRVEAEDVGVYYCLQATHFPQTFGGGTKVEIKR
With B4, the EC50 in experiment [2] amounted to 25.9 nM.

B5: Fab 0094 (Fab fragment of mAb 2007) (Fab, V domains shown)
VH: EVQLVESGGGLVKPGGSLRLSCAASGFTFSNYAMSWVRQAPGKGLEWVSTISRSGSYSYYPDSVKGRFTISRDNAKNSLYLQMNSLRAEDTAVYYCARLGGYDEGDAMDSWGQGTTVTVSS
VL: DIVMTQTPLSLSVTPGQPASISCKSSQSLLESDGKTYLNWYLQKPGQSPQLLIYLVSILDSGVPDRFSGSGSGTDFTLKISRVEAEDVGVYYCLQATHFPQTFGGGTKVEIKR
In turn, B5 yielded an EC50 in experiment [2] of 3.8 nM.

B6: Fab 0088 (Fab fragment of mAb 2021) (Fab, V domains shown)
VH: EVQLVESGGGLVKPGGSLRLSCAASGFTFSNYAMSWVRQTPEKRLEWVATISRSGSYSYFPDSVQGRFTISRDNAKNSLYLQMNSLRAEDTAVYYCARLGGYDEGDAMDSWGQGTTVTVSS
VL: DIVMTQTPLSLSVTPGQPASISCKSSQSLLESDGKTYLNWYLQKPGQSPQLLIYLVSILDSGVPDRFSGSGSGTDFTLKISRVEAEDVGVYYCLQATHFPQTFGGGTKVEIKR
With B6, the EC50 in experiment [2] was 0.31 nM.
